Laboratory results as given in US20170369569A1 (KAO, published 2017).
Ends that are not written are not given here.

What was measured:
[1] = target: T1, GIP(1-6) synthetic peptide; assay: direct ELISA on immobilized peptide, biotinylated antibody, peroxidase-streptavidin
T1 peptide: H-YAEGTF-OH
Protocol: (§1) The synthesized 6 peptides were each diluted to 1 μg/mL with PBS(−) and immobilized onto 96-well plates. ELISA was conducted using the biotinylated anti-active GIP monoclonal antibody and a peroxidase-streptavidin conjugate for detection.

[2] = target: T2, GIP(1-7) synthetic peptide; assay: as above
T2 peptide: H-YAEGTFI-OH
Protocol: as §1

[3] = target: T3, GIP(1-6)+GIP nonspecific 4aa (random 4aa) synthetic peptide; assay: as above
T3 construct: also called GIP(1-6)+random 4aa
T3 peptide: H-YAEGTFVNLV-OH
Protocol: as §1

nonactive GIP, GIP(3-42) = target: T4, nonactive GIP, GIP(3-42) (human); assay: sandwich ELISA, anti-total GIP capture antibody, biotinylated anti-active GIP antibody (1 µg/mL) as detection
T4 peptide: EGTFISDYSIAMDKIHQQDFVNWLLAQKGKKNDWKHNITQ
Protocol: (§2) The reactivity of the monoclonal antibody obtained in Example 1 with active GIP was confirmed by ELISA. The amino group of the anti-active GIP monoclonal antibody was biotinylated using a NH₂ group biotinylation kit (manufactured by Dojindo Laboratories). ELISA was conducted using 1 μg/mL prepared biotinylated anti-active GIP monoclonal antibody instead of a detection antibody ‘GIP detection antibody’ (biotinylated anti-total GIP monoclonal antibody) included in Human (total) GIP ELISA kit (manufactured by Merck Millipore). Six 4-fold serial dilutions (8.2 to 2000 pg/mL) were prepared with a 2000 pg/mL solution of GIP(1-42) or GIP(3-42) as the highest concentration. The capture antibody used was an anti-total GIP monoclonal antibody (included in the Human GIP (total) ELISA kit manufactured by Merck Millipore). The detection antibody used was the biotinylated anti-active GIP monoclonal antibody. A sandwich ELISA system containing a peroxidase-streptavidin conjugate was used in detection. GIP concentrations were plotted on the X axis against absorbance of 450 nm to 590 nm on the Y axis to prepare a calibration curve (FIG. 1).

[4] = target: T5, PEGylated N-terminal 13 amino acids of nonactive GIP (GIP(3-15)), antigen (2) for measurement (human, also: PEGylated, site not given here); assay: ELISA on immobilized antigen, hybridoma culture supernatant, HRP-labeled anti-mouse Ig secondary antibody
T5 construct: also called PEGylated GIP(3-15)
T5 peptide: EGTFISDYSIAMD
Protocol: (§3) The antigens (1) and (2) for measurement were each diluted to 1 μg/mL with PBS(−) and immobilized onto plates.

[5] = target: T6, PEGylated N-terminal 15 amino acids of active GIP (GIP(1-15)), antigen (1) for measurement (human, also: PEGylated, site not given here); assay: ELISA on immobilized antigen (1 µg/mL), hybridoma culture supernatant, HRP-labeled anti-mouse Ig secondary antibody
T6 construct: also called PEGylated GIP(1-15)
T6 peptide: YAEGTFISDYSIAMD
Protocol: as §3

active GIP, GIP(1-42) = target: T7, active GIP, GIP(1-42) (human); assay: sandwich ELISA, anti-total GIP capture antibody, biotinylated anti-active GIP antibody (1 µg/mL) as detection, GIP 8.2 to 2000 pg/mL
T7 construct: also called human active GIP
T7 peptide: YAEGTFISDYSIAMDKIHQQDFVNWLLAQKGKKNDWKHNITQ
Protocol: as §2

[6] = target: T8, GIP (1-10) synthetic peptide; assay: direct ELISA on immobilized peptide (1 µg/mL), biotinylated antibody, peroxidase-streptavidin
T8 construct: Free NH2 and COOH termini as printed
T8 peptide: H-YAEGTFISDY-OH
Protocol: as §1

[7] = target: T9, GIP(1-8) synthetic peptide; assay: as above
T9 peptide: H-YAEGTFIS-OH
Protocol: as §1

[8] = target: T10, GIP (1-9) synthetic peptide; assay: as above
T10 peptide: H-YAEGTFISD-OH
Protocol: as §1

binding result (nonactive GIP, GIP(3-42)): no binding (tested: 8.2 to 2000 pg/mL) | binding result [5]: binds | binding result (active GIP, GIP(1-42)): binds | binding result [6]: binds | binding result [7]: binds | binding result [8]: binds
B1: anti-active GIP monoclonal antibody produced from hybridoma 9B9H5-B9 line (antibody, V domains shown)
VH: QVQLQQPGAELVKPGASVKLSCKASGYTFTSFWMHWVIQRPGQGLEWIGEMNPSDGRTHFNEKFKTKATLTIDTSSNTAYMELNSLTSEDSAVYYCARRMEDWGQGTLVTVSA
VL: DIKMTQSPSSMYASLGERVTITCKASQDINSYLGWFQQKPGKSPKTLIYGANRLVDGVPSRFSGSGSGQDYSLTISSLEYDDMGIYYCLQYDEFPLTFGAGTKLELKR
notes: Mouse (BALB/c) hybridoma monoclonal antibody, purified on protein A. It was amplified with a mouse IgG H chain-specific primer; also called biotinylated anti-active GIP monoclonal antibody; anti-active GIP antibody of the present invention
binding result [1]: no binding (tested: peptide coated at 1 µg/mL) | binding result [2]: no binding (tested: peptide coated at 1 µg/mL) | binding result [3]: no binding (tested: peptide coated at 1 µg/mL) | binding result [4]: no binding (tested: antigen coated at 1 µg/mL)
